In general, Kd refers to the free concentration of one partner at which half of the binding sites on the other are occupied at equilibrium, for simple one-to-one binding. Lower therefore signals a tighter complex. The stoichiometry N is the number of molecules, sites or subunits per partner or assembly.

From article PMC6377645, “Structural insights into chaperone addiction of toxin-antitoxin systems” (Nature Communications, 2019) come the findings set out here.

B1: ChAD peptide, Mtb-HigA1(104-116) (peptide)
peptide: EVPTWHRLSSYRG
notes: residues 104-116 of the antitoxin Mtb-HigA1 of Mycobacterium tuberculosis (chaperone addiction region); also called C4; 13-mer ChAD peptide
B2: Mtb-SecB^TA chaperone (Rv1957), His6-tag removed (natural protein)
chain: MTDRTDADDLDLQRVGARLAARAQIRDIRLLRTQAAVHRAPKPAQGLTYDLEFEPAVDADPATISAFVVRISCHLRIQNQAADDDVKEGDTKDETQDVATADFEFAALFDYHLQEGEDDPTEEELTAYAATTGRFALYPYIREYVYDLTGRLALPPLTLEILSRPMPVSPGAQWPATRGTP
notes: SecB-like chaperone Mtb-SecB^TA (Rv1957) of Mycobacterium tuberculosis, 181 amino acids; untagged mass printed as 20,388 Da; Residues of the pET15b vector may remain after thrombin cleavage (surmised from the printed mass); For MST the protein was labelled with the dye NT-647; also called SecB-like chaperone; TA-associated SecB chaperone; not shown: His6, N-terminal, cleaved
B3: Mtb-SecB^TA with a N-terminal His6-tag (before thrombin cleavage) (natural protein)
chain: B2 chain
notes: SecB-like chaperone Mtb-SecB^TA (Rv1957) of Mycobacterium tuberculosis, 181 amino acids; also called His6-Mtb-SecB^TA; not shown: His6, N-terminal, kept
B4: Mtb-HigA1 antitoxin, full length, untagged (natural protein)
chain: MSIDFPLGDDLAGYIAEAIAADPSFKGTLEDAEEARRLVDALIALRKHCQLSQVEVAKRMGVRQPTVSGFEKEPSDPKLSTLQRYARALDARLRLVLEVPTLREVPTWHRLSSYRGSARDHQVRVGADKEILMQTNWARHISVRQVEVA
notes: antitoxin HigA1 of the TAC system of Mycobacterium tuberculosis, untagged; Obtained only in complex with Mtb-SecB^TA (4:2 hetero-hexamer); also called TAC antitoxin

Data set [1] deals with B2. Kind of data set: ITC; ChAD peptide (80-620 µM) injected into Mtb-SecB^TA (18-48 µM) in the cell; 12 °C; 20 mM MES, 200 mM NaCl, pH 6.5; one set of sites; Kd and enthalpy printed once for direct and reverse conditions. Conditions: both partners purified. In general terms: In ITC the heat of successive injections is recorded.
Data set [2] concerns the target B2. The experiment in a line: native MS; Mtb-SecB^TA 11.8 µM (tetramer) in 200 mM ammonium acetate pH 7, titrated with ChAD peptide at molar ratios 0 to 20 per tetramer; control peptides C2, C3, C7 at 8 peptides per tetramer; Kd fitted with UniDec, 4 sites, all KD's free. Conditions: both partners purified.
Data set [3] concerns the target B2. Kind of data set: MST; 100 nM NT-647-labelled Mtb-SecB^TA with 3 nM to 100 µM ChAD peptide; 20 mM MES, 200 mM NaCl, 0.025% Tween 20, pH 6.5; 22 °C. Conditions: both partners purified.
Data set [4] concerns the target B1. The experiment in a line: ITC; reverse conditions (protocol of the reverse titration not described); 12 °C; 20 mM MES, 200 mM NaCl, pH 6.5. The settings on record: both partners purified.
Data set [5] deals with the molecule itself. The experiment in a line: SEC-MALS; Superdex 200 Increase 5/150; 20 mM MES, 200 mM NaCl, pH 6.5; 15 °C; Mtb-SecB^TA 49.1 µM, Mtb-SecB^TA/HigA1 6.5 µM, Mtb-HigA1^ΔC42 100 µM.
The data set “SEC-MALS” concerns the molecule itself. Kind of data set: SEC-MALS. (In general: Size exclusion chromatography separates by hydrodynamic size, large species first.)
For data set [6], the target named is B2. The experiment in a line: native MS; Mtb-SecB^TA/HigA1 9.7 µM (hexamer) in 200 mM ammonium acetate pH 7, with 0 to 16 ChAD peptide molecules per hexamer. Conditions: both partners purified.
Data set [7] deals with B2. Kind of data set: SEC-MALS; Superdex 200 Increase 5/150; 20 mM MES, 200 mM NaCl, pH 6.5; 15 °C; Mtb-SecB^TA 49.1 µM, Mtb-SecB^TA/HigA1 6.5 µM, Mtb-HigA1^ΔC42 100 µM. The settings on record: both partners purified.

Values joined by “and” are separate entries in the source; they are usually repeats but may differ in a detail not shown here. Identical values can stand only once.

As to B1, in data set [1], the dissociation constant (Kd) was 1.9 ± 0.2 µM, the dH was -12 kcal/mol and the “stoichiometry N” value came out at 0.47. Further, in data set [2], the “Kd of the single binding events (four sites fitted, all KD's free)” value was in the range of 6 to 17 µM and the “stoichiometry N” value was ≤ 4 peptides per tetramer. This molecule yielded a Kd in data set [3] of 2.6 ± 0.6 µM.

With B2, the “stoichiometry N” value in data set [4] worked out at 2.2; in data set [5] it was 4.

On to B3, for which the “stoichiometry N” value in the data set “SEC-MALS” was 8 and 4.

On to B4, for which the “stoichiometry N” value in data set [6] was 0.5 HigA1 chains per SecB^TA chain (printed as 4:2 Mtb-SecB^TA/HigA1); in data set [5], 2; in data set [7] it was 0.5 HigA1 chains per SecB^TA chain (printed as 4:2 chaperone/antitoxin).
